Measured values as given in US12338268B2, “Compositions and methods for treating protein aggregation-associated diseases” (The Board of Trustees of the Leland Stanford Junior …, priority 2019, dated 2025).

Columns and labels:
[1] = molecular target: T1, mutant Huntingtin exon 1 (mHttQ51) (Homo sapiens, UniProt P42858, INS38QQQQQQQQQQQQQQQQQQQQQQQQQQQQQQQ); assay: In vitro filter trap aggregation assay of mutant Huntingtin exon 1; type: biochemical; details: 5× or 10× molar excess of peptides
T1 construct: mutant Huntingtin exon 1 containing a pathogenic stretch of 51 glutamines (mHttQ51); GST (N, cleaved yes); made in house; host or cells: E. coli Rosetta 2(DE3) pLysS
Description: Mutant Huntingtin and PolyQ51 aggregation reactions were performed at concentration 3 μM of mHttQ51, 0.044 Units/μl acTEV protease (Invitrogen, Carlsbad, CA, USA), and respective concentrations of Ovalbumin (Sigma) or purified NAC chaperone variants. Aggregation was conducted in TEV reaction buffer (Invitrogen) and incubated at 30° C. AtxQ78 was buffer exchanged into TEV reaction buffer using 7K MWCO Zeba Spin Desalting Columns (Thermo Fisher) to initiate aggregation. AtxQ78 aggregation reactions were performed at 30 μM of Ataxin-3 in reaction buffer (20 mM sodium phosphate pH 7.5, 25 mM NaCl, 6 mM MgCl2, 2 mM DTT, 5% (v/v) glycerol) and incubated at 37° C. Samples at varied time-points were then taken and combined in a 1:1 ratio with a 4% (w/v) SDS, 100 mM DTT solution, boiled for 5 min at 95° C., and stored at −20° C. Samples were then filtered through a 0.22 μm cellulose acetate membrane (Whatman) and washed with 0.1% (w/v) SDS. Membrane was probed using an S-tag antibody (Abcam) for mHttQ51 and PolyQ51, and with a His-tag antibody (Abcam) for AtxQ78.

[2] = test system: yeast model systems and tissue culture cells; assay: Neurotoxicity associated with Huntington's Disease in yeast model systems and tissue culture cells; type: cell-based; details: elevated levels of the subunit

T1 sequence (P42858 with tags, fused parts or gaps with the stated changes limits assumed): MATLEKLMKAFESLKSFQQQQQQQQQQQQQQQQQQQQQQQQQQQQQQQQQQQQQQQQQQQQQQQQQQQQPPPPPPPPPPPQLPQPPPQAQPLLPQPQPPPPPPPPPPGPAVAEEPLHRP

C. elegans N-βNAC peptide: synthetic peptide corresponding to the N-terminal region of C. elegans βNAC (SEQ ID NO:1) (MDSKAIAERIKKLQAQQEHVRIGGKGTPRRKKKVIHKTAA)
mHttQ51 aggregation [1]: sufficient to suppress aggregation of mHttQ51

full length CCT1 subunit: single subunit of the TRiC/CCT chaperonin complex
neurotoxicity associated with Huntington's Disease [2]: suppress neurotoxicity
